Assay results: US20070232520A1 (YEDA RESEARCH AND DEVELOPMENT, published 2007)

B2: full-length intracellular domain of the p55-TNF-R (p55IC) (receptor)
chain: RYQRWKSKLYSIVCGKSTPEKEGELEGTTTKPLAPNPSFSPTPGFTPTLGFSPVPSSTFTSSSTYTPGDCPNFAAPRREVAPPYQGADPILATALASDPIPNPLQKWEDSAHKPQSLDTDDPATLYAVVENVPPLRWKEFVRRLGLSDHEIDRLELQNGRCLREAQYSMLATWRRRTPRREATLELLGRVLRDMDLLGCLEDIEEALCGPAALPPAPSLLR
notes: the GAL4 part is not written as a piece; also called pGBT9-IC55; IC55

How the values were obtained:
[1] = target: B2; assay: yeast two-hybrid (SFY526), various baits
[2] = target: T1, 55.11 protein, partial (residues 309-900, as originally isolated), GAL4 activation-domain hybrid (human, UniProt Q13200 318-899); assay: yeast two-hybrid, colony colour (lacZ/X-gal)
[3] = target: T2, 55.11 construct 309-680 (C-terminal truncation) (human, UniProt Q13200 318-689); assay: yeast two-hybrid beta-galactosidase filter assay (SFY526), FIG. 13
T2 construct: GAL4 part not written

[4] = target: T3, 55.11 construct 457-900 (N-terminal truncation) (human, UniProt Q13200 466-899); assay: as above
T3 construct: GAL4 part not written

[5] = target: T4, 55.11 protein, partial (residues 309-900), VP16 activation-domain hybrid (human, UniProt Q13200 318-899); assay: as above
T4 construct: the VP16 part is not written; also called VP16AD

pGBT9 (vector alone) [6] = target: T5, pGBT9 (vector alone) (UniProt P04386 1-147); assay: yeast two-hybrid, colony colour (lacZ/X-gal)
T5 construct: Negative control bait; also called empty bait vector; empty Gal4 (pGBT9) vector

[7] = target: B2; assay: yeast two-hybrid (SFY526), liquid beta-galactosidase assay
pGBT9 (vector alone) [8] = target: T5, pGBT9 (vector alone); assay: as above
[9] = target: T6, lamin (irrelevant protein); assay: as above
T6 construct: Two-hybrid control bait; also called pACT-Lamin

[10] = target: the molecule itself; assay: yeast two-hybrid beta-galactosidase test (FIG. 14)
[11] = target: T1, 55.11 protein, partial (residues …); assay: yeast two-hybrid beta-galactosidase filter assay (SFY526), FIG. 13

T5 sequence (P04386 1-147 limits assumed): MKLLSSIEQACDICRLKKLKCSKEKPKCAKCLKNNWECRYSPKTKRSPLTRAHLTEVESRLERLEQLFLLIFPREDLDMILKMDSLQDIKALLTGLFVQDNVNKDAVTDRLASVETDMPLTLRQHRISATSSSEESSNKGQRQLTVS
T1 sequence (Q13200 other isoform, or with tags, fused parts or gaps): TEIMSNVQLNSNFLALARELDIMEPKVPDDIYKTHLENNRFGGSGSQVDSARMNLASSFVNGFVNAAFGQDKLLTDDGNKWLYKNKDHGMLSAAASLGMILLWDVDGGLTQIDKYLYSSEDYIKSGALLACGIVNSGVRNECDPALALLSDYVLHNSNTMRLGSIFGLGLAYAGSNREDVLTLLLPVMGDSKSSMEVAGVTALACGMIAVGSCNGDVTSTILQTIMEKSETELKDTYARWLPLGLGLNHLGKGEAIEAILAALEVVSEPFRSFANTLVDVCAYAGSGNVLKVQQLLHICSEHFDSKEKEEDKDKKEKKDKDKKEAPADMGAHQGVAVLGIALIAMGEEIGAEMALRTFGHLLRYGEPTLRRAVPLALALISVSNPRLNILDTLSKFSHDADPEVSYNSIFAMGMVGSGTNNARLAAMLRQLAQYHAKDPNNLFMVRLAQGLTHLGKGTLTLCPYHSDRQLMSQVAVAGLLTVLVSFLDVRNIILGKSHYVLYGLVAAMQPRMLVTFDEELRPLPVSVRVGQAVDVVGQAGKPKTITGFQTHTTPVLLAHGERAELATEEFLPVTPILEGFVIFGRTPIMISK
T2 sequence (Q13200 318-689): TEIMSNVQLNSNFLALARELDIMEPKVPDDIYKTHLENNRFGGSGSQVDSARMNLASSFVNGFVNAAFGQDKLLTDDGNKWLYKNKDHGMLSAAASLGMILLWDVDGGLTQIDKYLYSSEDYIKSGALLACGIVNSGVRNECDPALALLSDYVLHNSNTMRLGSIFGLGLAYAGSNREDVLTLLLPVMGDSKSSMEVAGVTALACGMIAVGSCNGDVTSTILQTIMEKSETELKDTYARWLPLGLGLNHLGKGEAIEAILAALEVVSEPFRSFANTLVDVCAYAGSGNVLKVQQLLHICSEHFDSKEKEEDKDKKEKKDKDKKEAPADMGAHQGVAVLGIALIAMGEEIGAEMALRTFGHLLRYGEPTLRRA
T3 sequence (Q13200 other isoform, or with tags, fused parts or gaps): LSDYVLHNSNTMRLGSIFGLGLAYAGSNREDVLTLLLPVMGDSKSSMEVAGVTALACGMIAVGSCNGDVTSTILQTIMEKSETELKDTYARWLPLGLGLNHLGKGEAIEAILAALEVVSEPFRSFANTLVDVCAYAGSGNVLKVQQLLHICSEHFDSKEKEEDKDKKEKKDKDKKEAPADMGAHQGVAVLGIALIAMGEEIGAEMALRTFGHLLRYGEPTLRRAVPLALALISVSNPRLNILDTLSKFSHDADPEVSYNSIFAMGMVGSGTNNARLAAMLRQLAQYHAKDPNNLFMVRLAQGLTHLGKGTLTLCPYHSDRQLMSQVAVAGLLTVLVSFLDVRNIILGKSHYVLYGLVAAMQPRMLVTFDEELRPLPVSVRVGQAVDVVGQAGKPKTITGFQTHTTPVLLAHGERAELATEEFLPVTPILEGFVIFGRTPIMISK

B1: E19 (p75IC-binding protein encoded by clone E19) (other)
chain: EAAGRERERTLEYAEAHAFKSPSKENKKKDKDMLEDKFKSNNLEREQEQLDRIVKESGGKLTRRLVNSQCEFERRKPDGTTTLGLLHPVDPIVGEPGYCPVRLGMTTGRLQSGVNTLQGFKEDKRNKVTPVLYLELWAPTVLYAPHYDSTFANYQQGLI
notes: HeLa cDNA clone in pGAD-GH; GAL4 part not written
B1: no binding [1].

B2: binds [2]; no binding (tested: no development of color within 24 h) [3]; no binding (tested: no development of color within 24 h) [4]. B2: binds [5].

B3: 55.1 (protein fragment 55.1 of the p55IC, residues 328-426, the death domain) (receptor)
chain: ATLYAVVENVPPLRWKEFVRRLGLSDHEIDRLELQNGRCLREAQYSMLATWRRRTPRREATLELLGRVLRDMDLLGCLEDIEEALCGPAALPPAPSLLR
notes: also called death domain of human p55-R
B3 was tested, and the binding result (pGBT9 (vector alone) [6]) was “no binding”, the “Lac Z Activity in Liquid Culture Assay” value [7] was 0.65 and the “Lac Z Activity in Liquid Culture Assay” value (pGBT9 (vector alone) [8]) was 0. For the same binder, the “Lac Z Activity in Liquid Culture Assay” value [9] was 0.

B4: mouse Fas/APO1 intracellular domain (FAS-IC, residues 166-306) (receptor, UniProt P25446 187-327, looked up)
chain: RKYRKRKCWKRRQDDPESRTSSRETIPMNASNLSLSKYIPRIAEDMTIQEAKKFARENNIKEGKIDEIMHDSIQDTAEQKVQLLLCWYQSHGKSDAYQDLIKGLKKAECRRTLDKFQDMVQKDLGKSTPDTGNENEGQCLE
notes: range 166-306; GAL4 hybrid constructs; also called murine FAS-IC; mouse FAS-IC
B4: binds [10].

B5: truncated p55-IC from which the death domain had been deleted (construct 206-328) (receptor)
chain: RYQRWKSKLYSIVCGKSTPEKEGELEGTTTKPLAPNPSFSPTPGFTPTLGFSPVPSSTFTSSSTYTPGDCPNFAAPRREVAPPYQGADPILATALASDPIPNPLQKWEDSAHKPQSLDTDDPA
notes: GAL4 part not written
B5: binds [11].

B6: 55.3 (protein fragment 55.3 of the p55IC, residues 277-426) (receptor)
chain: NFAAPRREVAPPYQGADPILATALASDPIPNPLQKWEDSAHKPQSLDTDDPATLYAVVENVPPLRWKEFVRRLGLSDHEIDRLELQNGRCLREAQYSMLATWRRRTPRREATLELLGRVLRDMDLLGCLEDIEEALCGPAALPPAPSLLR
In the case of B6, the “Lac Z Activity in Liquid Culture Assay” value [7] is reported as 0.04, the “Lac Z Activity in Liquid Culture Assay” value (pGBT9 (vector alone) [8]) is reported as 0 and the “Lac Z Activity in Liquid Culture Assay” value [9] is reported as 0.

B7: C terminally truncated p55-IC (construct 206-308) (receptor)
chain: RYQRWKSKLYSIVCGKSTPEKEGELEGTTTKPLAPNPSFSPTPGFTPTLGFSPVPSSTFTSSSTYTPGDCPNFAAPRREVAPPYQGADPILATALASDPIPNP
notes: GAL4 part not written
B7: binds [11].

B8: p55-IC construct from which both the death domain and a membrane proximal part were deleted (construct 243-328) (receptor)
chain: SFSPTPGFTPTLGFSPVPSSTFTSSSTYTPGDCPNFAAPRREVAPPYQGADPILATALASDPIPNPLQKWEDSAHKPQSLDTDDPA
notes: GAL4 part not written
B8: binds [11].

B9: protein encoded by the 230 clone (other)
chain: GPIREAGLAGWLALGCSGPPAEAAGGAGEPWPQHSGKGQLAGRNAWVKKRKAPRENSPGVRSCRASGRASRPHGDPFLLTLPRARHPVTLNVTIQVSLKQRNVRFNTPFRRGEN
notes: 114 amino acid residues; HeLa cDNA clone in pGAD-GH; GAL4 part not written
B9: no binding [1].

B10: E3 (p75IC-binding protein encoded by clone E3) (other)
chain: TFKIRMEPDETVKVLKEKIEAEKGRDAFPVAGQKLIYAGKILSDDVPIRDYRIDEKNFVVVMVTKTKAGQGTSAPPEASPTAAPESSTSFPPAPTSGMSHPPPAAREDKSPSEESTPTPEQEPCLZ
notes: GAL4 part not written; for coprecipitation expressed in HeLa cells from pUHD10-3
B10: no binding [1].
